Results reported in patent US20200255508A1 (AbbVie / Abbott, published 2020).
Substitutions are numbered along the chain they refer to. Like-named read-outs stand apart in the source and are kept apart here.

Tests used:
[1] = molecular target: T1, human DLL4 extracellular domain (human, UniProt Q9NR61 27-529); experiment: competition ELISA, competitor huNotch-1
T1 construct: extracellular domain; coated on plates in the sVEGFR1 assay; also called huDLL4 ECD; Human DLL4 ECD
Procedure: (§1) Plates were then washed 3 times with wash buffer (PBS, 0.05% Tween-20) and blocked with 200 μl/well blocking buffer (D-PBS, 1% BSA, 1 mM CaCl₂, 0.05% Tween-20) for 1 hour at 25° C. […] Assay plates were washed after blocking, and incubated with DLL4/antibody mixtures (100 μl/well, 1 hour at 25° C. with shaking). […] After a final wash, plates were developed using 100 μl/well substrate (TMB Sigma # T8665), and the reaction was stopped after an 8-minute incubation at 25° C. (for muDLL4 ELISA) and after 20 minute incubation at 25° C. (for huDLL4 ELISA) using 100 μl/well 1N HCl, and the absorbance was read at 450 nm.

[2] = molecular target: T2, mouse DLL4 extracellular domain (mouse, UniProt Q9JI71 27-532); experiment: competition ELISA, competitor huNotch-1
T2 construct: extracellular domain; also called muDLL4 ECD; Mouse DLL4 ECD
Procedure: as §1

[3] = molecular target: T3, mouse DLL4 on the cell surface (mouse, UniProt Q9JI71 27-686); experiment: FACS on DLL4 cells
T3 construct: whole, on cells; also called HEK293-mDLL4; mDLL4-293G
Procedure: (§2) Stable cell lines overexpressing cell-surface DLL4 were harvested from tissue culture flasks, washed four times and resuspended in phosphate buffered saline (PBS) containing 1% bovine serum albumin and 1 mM CaCl₂ (FACS buffer), 1.5×10³ cells were incubated with antibodies at various concentrations in FACS buffer for 60 minutes on ice. Cells were washed twice and 50 μL of R-phycoerythrin-conjugated anti-rat IgG. […] Following an incubation on ice (4° C., 60 minutes), cells were washed three times and resuspended in FACS buffer. Fluorescence was measured using a Becton Dickinson FACSCalibur-HTS (Becton Dickinson, San Jose. Calif., US). Data were analyzed using Graphpad Prism software and EC₅₀ values were reported as the concentration of antibody to achieve 50% of maximal DLL4 antibodies binding to DLL4 expressing cells.

[4] = molecular target: T4, human DLL4 on the cell surface (human, UniProt Q9NR61 27-685); experiment: FACS on DLL4 cells
T4 construct: whole, on cells; also called HEK293-hDLL4; hDLL4-293G
Procedure: as §2

[5] = molecular target: T1, human DLL4 extracellular domain; experiment: Biacore SPR
Procedure: (§3) Binding of DLL4 antibodies to a purified recombinant DLL4 extracellular domain is determined by surface plasmon resonance-based measurements with a Biacore® instrument (either a Biacore 2000, Biacore 3000, or Biacore T100, GE Healthcare, Piscataway, N.J. US) using running buffer HBS-EPB (10 mM HEPES [pH 7.4], 150 mM NaCl, 3 mM EDTA, 0.1 mg/ml BSA and 0.005% surfactant P20) at 25° C. For example, approximately 9000 RU of goat anti-human Fc specific polyclonal antibody (Thermo Fisher Scientific Inc., Rockford, Ill., US) diluted in 10 mM sodium acetate (pH 4.5) is directly immobilized across a CM5 research grade biosensor chip using a standard amine coupling kit according to manufacturer's instructions and procedures at 25 μg/ml. Unreacted moieties on the biosensor surface are blocked with ethanolamine. For kinetic analysis, rate equations derived from the 1:1 Langmuir binding model are fitted simultaneously to multiple antigen injections (using global fit analysis) with the use of Scrubber 2 (BioLogic Software). […] The equilibrium dissociation constant KD (M) of the reaction between antibodies and the target antigen is then calculated from the kinetic rate constants by the following formula: KD=Koff/Kₒₙ. Binding is recorded as a function of time and kinetic rate constants are calculated. In this assay, on-rates as fast as 10⁶ M⁻¹s⁻¹ and off-rates as slow as 10⁻⁶ s⁻¹ can be measured.

[6] = molecular target: T2, mouse DLL4 extracellular domain; experiment: Biacore SPR
Procedure: as §3

[7] = molecular target: T5, rat DLL4 extracellular domain (rat, UniProt D3ZHH1 28-530); experiment: Biacore SPR
T5 construct: extracellular domain; also called ratDLL4 ECD
Procedure: as §3

[8] = molecular target: T1, human DLL4 extracellular domain; experiment: capture ELISA
Procedure: (§4) ELISA plates were washed 3 times with wash buffer (PBS, 0.05% Tween-20) and then blocked with 200 ml/well blocking buffer (D-PBS, 1% BSA, 1 mM CaCl₂, 0.05% Tween-20) for 1 hour at 25° C. Plates were washed 3 times and incubated with 100 μl/well DLL4 antibodies (0.0001-100 nM, 10-fold serial dilution in blocking buffer) for 1 hour at 25° C., and then washed again 3 times. […] The reaction was stopped after 2 minutes at 25° C. with 100 μl/well 2 N H2SO₄ and the absorbance was read at 450 nm. Data were analyzed using Graphpad Prism software and EC₅₀ values were reported.

[9] = molecular target: T2, mouse DLL4 extracellular domain; experiment: capture ELISA
Procedure: as §4

[10] = molecular target: T1, human DLL4 extracellular domain; experiment: cell-based or functional assay
[11] = molecular target: T4, human DLL4 on the cell surface; experiment: cell-based or functional assay
[12] = molecular target: T2, mouse DLL4 extracellular domain; experiment: cell-based or functional assay
[13] = molecular target: T3, mouse DLL4 on the cell surface; experiment: competition FACS, competitor huNotch-1
Procedure: (§5) Notch blocking assay: Briefly, stable cell lines overexpressing cell-surface DLL4 were harvested from tissue culture flasks and re-suspended in phosphate buffered saline (PBS) containing 1% bovine serum albumin and 1 mM CaCl₂ (FACS buffer). HEK293-hDLL4 or HEK293-mDLL4 cells were dispensed into 96-well plate (v-bottom) at 1.5×10⁵ cells/well in FACS buffer. […] After washing the cells two times with FACS buffer, 50 μL of R-phycoerythrin-conjugated streptavidin (1:150 dilution in FACS buffer) (Jackson ImmunoResearch, West Grove, Pa., US, catalog no. 016-110-084) were added. Following an incubation on ice (4° C., 60 minutes), cells were washed three times and resuspended in FACS buffer. Fluorescence was measured using a Becton Dickinson FACSCalibur-HTS (Becton Dickinson, San Jose. Calif.).

[14] = molecular target: T4, human DLL4 on the cell surface; experiment: competition FACS, competitor huNotch-1
Procedure: as §5

[15] = molecular target: T1, human DLL4 extracellular domain; experiment: Biacore SPR; remark: listed apart in the source
Procedure: as §3

[16] = molecular target: T2, mouse DLL4 extracellular domain; experiment: Biacore SPR; remark: listed apart in the source
Procedure: as §3

[17] = molecular target: T4, human DLL4 on the cell surface; experiment: FACS on DLL4 cells; remark: listed apart in the source
[18] = molecular target: T3, mouse DLL4 on the cell surface; experiment: competition FACS, competitor huNotch-1; competition FACS, huNotch-1/DLL4 cells (IC50)
Procedure: as §5

[19] = molecular target: T4, human DLL4 on the cell surface; experiment: competition FACS, competitor huNotch-1; remark: listed apart in the source
Procedure: as §5

[20] = molecular target: T3, mouse DLL4 on the cell surface; experiment: FACS on DLL4 cells; remark: listed apart in the source
[21] = molecular target: T1, human DLL4 extracellular domain; experiment: capture ELISA; remark: listed apart in the source
Procedure: as §4

[22] = molecular target: T2, mouse DLL4 extracellular domain; experiment: capture ELISA; remark: listed apart in the source
Procedure: as §4

[23] = molecular target: T1, human DLL4 extracellular domain; experiment: competition ELISA, competitor huNotch-1; remark: listed apart in the source
Procedure: as §1

[24] = molecular target: T2, mouse DLL4 extracellular domain; experiment: competition ELISA, competitor huNotch-1; remark: listed apart in the source
Procedure: as §1

[25] = molecular target: T4, human DLL4 on the cell surface; experiment: cell-based or functional assay; remark: listed apart in the source
[26] = molecular target: T3, mouse DLL4 on the cell surface; experiment: competition FACS, competitor huNotch-1; remark: listed apart in the source
Procedure: as §5

T2 sequence (Q9JI71 27-532): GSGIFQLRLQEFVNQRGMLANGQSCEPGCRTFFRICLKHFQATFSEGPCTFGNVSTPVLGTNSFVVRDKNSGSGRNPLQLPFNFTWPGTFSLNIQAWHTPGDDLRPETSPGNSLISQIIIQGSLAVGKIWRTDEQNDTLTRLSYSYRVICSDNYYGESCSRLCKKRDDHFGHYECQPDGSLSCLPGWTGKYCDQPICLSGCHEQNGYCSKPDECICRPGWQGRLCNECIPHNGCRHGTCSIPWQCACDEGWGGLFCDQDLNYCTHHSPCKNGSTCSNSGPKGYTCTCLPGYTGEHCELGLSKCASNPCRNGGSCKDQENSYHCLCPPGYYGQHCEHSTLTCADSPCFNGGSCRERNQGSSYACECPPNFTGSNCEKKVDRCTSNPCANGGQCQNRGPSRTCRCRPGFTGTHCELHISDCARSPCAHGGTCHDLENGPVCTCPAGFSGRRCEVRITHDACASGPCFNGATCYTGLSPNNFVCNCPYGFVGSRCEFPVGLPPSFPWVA
T3 sequence (Q9JI71 27-686): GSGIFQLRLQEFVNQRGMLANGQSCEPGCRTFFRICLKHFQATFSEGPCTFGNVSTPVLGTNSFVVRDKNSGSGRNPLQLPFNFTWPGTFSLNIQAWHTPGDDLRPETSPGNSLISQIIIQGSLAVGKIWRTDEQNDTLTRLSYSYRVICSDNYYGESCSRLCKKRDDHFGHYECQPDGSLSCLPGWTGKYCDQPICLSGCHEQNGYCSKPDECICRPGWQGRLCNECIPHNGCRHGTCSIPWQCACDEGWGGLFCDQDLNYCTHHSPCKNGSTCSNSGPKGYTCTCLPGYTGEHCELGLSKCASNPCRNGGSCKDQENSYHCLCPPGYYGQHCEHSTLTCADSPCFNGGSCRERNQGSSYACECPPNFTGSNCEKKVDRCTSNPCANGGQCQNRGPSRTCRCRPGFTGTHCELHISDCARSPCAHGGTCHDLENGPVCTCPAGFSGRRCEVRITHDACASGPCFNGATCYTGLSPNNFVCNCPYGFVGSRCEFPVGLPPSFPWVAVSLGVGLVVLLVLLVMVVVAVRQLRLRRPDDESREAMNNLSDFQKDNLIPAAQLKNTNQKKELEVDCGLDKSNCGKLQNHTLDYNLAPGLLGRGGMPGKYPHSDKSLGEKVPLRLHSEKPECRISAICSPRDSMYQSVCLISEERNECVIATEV
T5 sequence (D3ZHH1 28-530): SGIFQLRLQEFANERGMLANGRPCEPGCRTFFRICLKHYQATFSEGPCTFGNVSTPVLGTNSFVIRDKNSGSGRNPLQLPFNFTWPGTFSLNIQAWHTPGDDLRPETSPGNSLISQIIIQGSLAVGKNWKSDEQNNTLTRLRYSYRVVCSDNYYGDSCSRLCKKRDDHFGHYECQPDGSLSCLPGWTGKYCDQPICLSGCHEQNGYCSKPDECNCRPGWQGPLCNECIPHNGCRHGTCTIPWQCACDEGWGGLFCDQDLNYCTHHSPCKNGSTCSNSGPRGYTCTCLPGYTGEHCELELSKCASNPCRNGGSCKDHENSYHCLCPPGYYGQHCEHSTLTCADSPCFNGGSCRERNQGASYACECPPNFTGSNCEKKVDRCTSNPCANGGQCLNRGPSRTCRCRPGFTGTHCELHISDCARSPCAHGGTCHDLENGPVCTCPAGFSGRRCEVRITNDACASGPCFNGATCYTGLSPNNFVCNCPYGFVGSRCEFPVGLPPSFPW

B1: E9 (antibody, IgG1, V domains shown)
VH: EVQLQESGPGLVKPSETLSLTCTVSGGSISSSSYYWGWIRQPPGKGLEWIGDIYYTGSTYYNPSLKSRVTISVDTSKNQFSLKLSSVTAADTAVYYCAREDVILRGGSDYWGQGTLVTVSS
VL: SYELTQPPSVSVSPGQTASITCSGQRLGDKYASWYQQKPGQSPVLVIYEDSKRPSGIPERFSGSNSGDTATLTISGTQPMDEADYYCQAWDRDTGVFGYGTRVTVL
notes: also called anti-DLL4 PROfusion antibody E9
Q: What does the source list for B1?
A: IC50 [1]: 1.7 nM; IC50 [2]: 2.1 nM; EC50 [3]: 0.32 nM; EC50 [4]: 7.23 nM; Kd [5]: 3.36 nM; koff [5]: 6.6e-05 s⁻¹; kon [5]: 20000 M⁻¹ s⁻¹; Kd [6]: 16 nM; koff [6]: 0.00026 s⁻¹; kon [6]: 18000 M⁻¹ s⁻¹; Kd [7]: 15 nM; koff [7]: 0.00029 s⁻¹; kon [7]: 19000 M⁻¹ s⁻¹; EC50 [8]: 0.17 nM; EC50 [9]: 0.18 nM; sVEGFR1 Inhibition (IC50, nM) DLL4 ECD/EaHy cells, hu [10]: 1 nM; Inhibition of Notch activation via huDLL4 cells, coculture (IC50, nM) [11]: 6.2 nM; sVEGFR1 Inhibition (IC50, nM) DLL4 ECD/EaHy cells, mu [12]: 0.4 nM; IC50 [13]: 3.2 nM; IC50 [14]: 23.4 nM

B2: E9.16 (antibody, V domains shown)
VH: B1 VH
VL: B1 VL with Q25E, A32V, S51F, R102K
notes: also called DLL4-E9-16 hIgG1/L
Q: B2 was tested. Which Kd [15] did it give?
A: 2.45 nM

Q: And the koff [15]?
A: 3.15e-05 s⁻¹

Q: What about the kon [15] of the same binder?
A: 12900 M⁻¹ s⁻¹

Q: What about the Kd [16] of the same binder?
A: 8.1 nM

Q: What about the koff [16] of the same binder?
A: 0.000148 s⁻¹

Q: And the kon [16]?
A: 18300 M⁻¹ s⁻¹

Q: What about the EC50 [17] of the same binder?
A: 1.7 nM

Q: And the IC50 [18]?
A: 1.1 nM

Q: And the IC50 [19]?
A: 12.6 nM

B3: E9.71 (antibody, V domains shown)
VH: B1 VH with E100Q, D101A, V102L, I103A, L104M, R105G, Y110K
VL: B1 VL with R102K
notes: also called DLL4-E9-71 hIgG1/L
Q: What does the source list for B3?
A: Kd [15]: 0.91 nM; koff [15]: 3.51e-05 s⁻¹; kon [15]: 38800 M⁻¹ s⁻¹; Kd [16]: 6.08 nM; koff [16]: 0.000216 s⁻¹; kon [16]: 35500 M⁻¹ s⁻¹; EC50 [20]: 0.32 nM; EC50 [17]: 1.82 nM; EC50 [21]: 0.16 nM; EC50 [22]: 0.17 nM; IC50 [23]: 2 nM; IC50 [24]: 1.3 nM; Inhibition of Notch activation via huDLL4 cells, coculture (IC50, nM) [25]: 2.1 nM; IC50 [26]: 0.24 nM; IC50 [19]: 3.22 nM
